Test results published in the supplement of paper PMC7877785.
± gives the uncertainty stated by the source.

Assay: self-splicing fitness, log relative to wild type (ln ratio); higher = more splicing; Tetrahymena group I intron in knt gene, E. coli kanamycin selection, DiMSum; sequences stand for … in CUCUCU…GGAGGGAAAAGUUAUCAGGCAUGCACCUGGUAGCUAGUCUUUAAACCAAUAGAUUGCAUCGGUUUAAAAGGCAAGACCGUCAAAUUGCGGGAAAGGGGUCAACAGCCGUUCAGUACCAAGUCUCAGGGGAAACUUUGAGAUGGCCUUGCAAAGGGUAUGGUAAUAAGCUGACGGACAUGGUCCUAACCACGCAGCCAAGUCCUAAGUCAACAGAUCUUCUGUUGAUAUGGAUGCAGUUCACAGACUAAAUGUCGGUCGGGGAAGAUGUAUUCUUCUCAUAAGAUAUAGUCGGACCUCUCCUUAAUGGGAGCUAGCGGAUGAAGUGAUGCAACACUGGAGCCGCUGGGAACUAAUUUGUAUGCGAAAGUAUAUUGAUUAGUUUUGGAGUACUCGUGGUCG
How it was run: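 A randomised library covering all eight P1ex-region intron nucleotides was built with the intron in the knt kanamycin-resistance gene on pET-22b(+) and held in E. coli BL21(DE3). Cells were grown overnight at 37°C or 30°C on LB agar, with or without 25 μg/mL kanamycin, plus 100 μg/mL carbenicillin, 50 μM IPTG and 0.2% rhamnose, and pooled colonies were amplicon-sequenced on an Illumina HiSeq 2500. DiMSum fitness is the error-weighted combination of wild-type-normalised replicate fold changes, kanamycin versus none.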

CAGGAGCAAUAUUACGAGCG
self-splicing fitness (ln) (30 °C): -1.04 ± 0.13 | self-splicing fitness (ln) (37 °C): 0.24 ± 0.11

CAGGAGCAAUAUUACGCACU
self-splicing fitness (ln) (30 °C): -2.54 ± 0.5 | self-splicing fitness (ln) (37 °C): -1.2 ± 0.34

CAGGAGCAAUAUUACGCAGA
self-splicing fitness (ln) (30 °C): -2.76 ± 0.33 | self-splicing fitness (ln) (37 °C): -2.29 ± 0.2

CAGGAGCAAUAUUACGCCAG
self-splicing fitness (ln) (30 °C): -2.75 ± 0.32

CAGGAGCAAUAUUACGCGCC
self-splicing fitness (ln) (37 °C): -2.5 ± 0.26

CAGGAGCAAUAUUACGCGGA
self-splicing fitness (ln) (30 °C): -2.78 ± 0.25

CAGGAGCAAUAUUACGCGGU
self-splicing fitness (ln) (37 °C): -3.29 ± 0.47

CAGGAGCAAUAUUACGCUCU
self-splicing fitness (ln) (30 °C): -3.36 ± 0.26 | self-splicing fitness (ln) (37 °C): -2.41 ± 0.26

CAGGAGCAAUAUUACGCUGC
self-splicing fitness (ln) (30 °C): -4.3 ± 0.36 | self-splicing fitness (ln) (37 °C): -2.82 ± 0.36

CAGGAGCAAUAUUACGGCGG
self-splicing fitness (ln) (30 °C): -0.542 ± 0.074 | self-splicing fitness (ln) (37 °C): -0.0448 ± 0.091

CAGGAGCAAUAUUACGGGAC
self-splicing fitness (ln) (30 °C): -2.88 ± 0.25 | self-splicing fitness (ln) (37 °C): -3.24 ± 0.29

CAGGAGCAAUAUUACGGGUA
self-splicing fitness (ln) (30 °C): -4.12 ± 0.42 | self-splicing fitness (ln) (37 °C): -3.31 ± 0.35

CAGGAGCAAUAUUACGGUGU
self-splicing fitness (ln) (30 °C): -3.1 ± 0.15 | self-splicing fitness (ln) (37 °C): -2.66 ± 0.2

CAGGAGCAAUAUUACGGUUU
self-splicing fitness (ln) (30 °C): -3.2 ± 0.41

CAGGAGCAAUAUUACGUAAA
self-splicing fitness (ln) (30 °C): -1.92 ± 0.25 | self-splicing fitness (ln) (37 °C): -1.24 ± 0.31

CAGGAGCAAUAUUACGUGCU
self-splicing fitness (ln) (30 °C): -2.91 ± 0.13 | self-splicing fitness (ln) (37 °C): -2.23 ± 0.14

CAGGAGCAAUAUUACGUUUU
self-splicing fitness (ln) (30 °C): -3.95 ± 0.35 | self-splicing fitness (ln) (37 °C): -2.3 ± 0.23

CAGUAGCAAUAUUACGACAA
self-splicing fitness (ln) (30 °C): -1.98 ± 0.19 | self-splicing fitness (ln) (37 °C): -1.62 ± 0.15

CAGUAGCAAUAUUACGACCU
self-splicing fitness (ln) (30 °C): -0.458 ± 0.15 | self-splicing fitness (ln) (37 °C): -0.391 ± 0.2

CAGUAGCAAUAUUACGCGUG
self-splicing fitness (ln) (30 °C): -2.65 ± 0.18 | self-splicing fitness (ln) (37 °C): -1.86 ± 0.14

CAGUAGCAAUAUUACGCUAG
self-splicing fitness (ln) (30 °C): -2.14 ± 0.1 | self-splicing fitness (ln) (37 °C): -1.34 ± 0.1

CAGUAGCAAUAUUACGCUGU
self-splicing fitness (ln) (30 °C): -2.72 ± 0.17 | self-splicing fitness (ln) (37 °C): -2.99 ± 0.28

CAGUAGCAAUAUUACGGAGA
self-splicing fitness (ln) (30 °C): -2.32 ± 0.24

CAGUAGCAAUAUUACGGAUC
self-splicing fitness (ln) (30 °C): -3.64 ± 0.43 | self-splicing fitness (ln) (37 °C): -1.48 ± 0.27

CAGUAGCAAUAUUACGGAUU
self-splicing fitness (ln) (30 °C): -2.84 ± 0.17 | self-splicing fitness (ln) (37 °C): -3.21 ± 0.27

CAGUAGCAAUAUUACGGGGG
self-splicing fitness (ln) (30 °C): -3.48 ± 0.33 | self-splicing fitness (ln) (37 °C): -2.02 ± 0.42

CAGUAGCAAUAUUACGGGUG
self-splicing fitness (ln) (30 °C): -0.853 ± 0.06 | self-splicing fitness (ln) (37 °C): -0.398 ± 0.078

CAGUAGCAAUAUUACGUAAG
self-splicing fitness (ln) (30 °C): 0.131 ± 0.069 | self-splicing fitness (ln) (37 °C): -0.159 ± 0.086

CAGUAGCAAUAUUACGUACU
self-splicing fitness (ln) (30 °C): -1.78 ± 0.12 | self-splicing fitness (ln) (37 °C): -1.3 ± 0.1

CAGUAGCAAUAUUACGUAGU
self-splicing fitness (ln) (30 °C): -2.5 ± 0.13 | self-splicing fitness (ln) (37 °C): -2.54 ± 0.18

CAGUAGCAAUAUUACGUAUU
self-splicing fitness (ln) (30 °C): -3.48 ± 0.2 | self-splicing fitness (ln) (37 °C): -1.81 ± 0.2

CAGUAGCAAUAUUACGUCAC
self-splicing fitness (ln) (30 °C): -2 ± 0.25

CAGUAGCAAUAUUACGUCGG
self-splicing fitness (ln) (30 °C): -0.645 ± 0.078 | self-splicing fitness (ln) (37 °C): -0.0434 ± 0.1

CAGUAGCAAUAUUACGUUGU
self-splicing fitness (ln) (30 °C): -4.7 ± 0.28 | self-splicing fitness (ln) (37 °C): -3.14 ± 0.24

CAUAAGCAAUAUUACGACGC
self-splicing fitness (ln) (30 °C): -2.7 ± 0.25 | self-splicing fitness (ln) (37 °C): -0.823 ± 0.19

CAUAAGCAAUAUUACGAGAC
self-splicing fitness (ln) (30 °C): -3.9 ± 0.37

CAUAAGCAAUAUUACGAGAG
self-splicing fitness (ln) (30 °C): -2.88 ± 0.18 | self-splicing fitness (ln) (37 °C): -1.32 ± 0.14

CAUAAGCAAUAUUACGAGCA
self-splicing fitness (ln) (30 °C): -3.98 ± 0.37 | self-splicing fitness (ln) (37 °C): -1.77 ± 0.2

CAUAAGCAAUAUUACGAGGU
self-splicing fitness (ln) (30 °C): -2.81 ± 0.16 | self-splicing fitness (ln) (37 °C): -2.6 ± 0.18

CAUAAGCAAUAUUACGAGUA
self-splicing fitness (ln) (30 °C): -2.34 ± 0.15 | self-splicing fitness (ln) (37 °C): -1.45 ± 0.15

CAUAAGCAAUAUUACGAUCA
self-splicing fitness (ln) (30 °C): -2.28 ± 0.21 | self-splicing fitness (ln) (37 °C): -1.87 ± 0.2

CAUAAGCAAUAUUACGAUGA
self-splicing fitness (ln) (30 °C): -2.58 ± 0.14 | self-splicing fitness (ln) (37 °C): -0.929 ± 0.13

CAUAAGCAAUAUUACGCCUC
self-splicing fitness (ln) (30 °C): -2.88 ± 0.39 | self-splicing fitness (ln) (37 °C): -1.75 ± 0.41

CAUAAGCAAUAUUACGCCUU
self-splicing fitness (ln) (30 °C): -3.7 ± 0.19 | self-splicing fitness (ln) (37 °C): -1.96 ± 0.17

CAUAAGCAAUAUUACGCGUG
self-splicing fitness (ln) (30 °C): -3.79 ± 0.26 | self-splicing fitness (ln) (37 °C): -2.88 ± 0.2

CAUAAGCAAUAUUACGCUAA
self-splicing fitness (ln) (30 °C): -2.58 ± 0.3 | self-splicing fitness (ln) (37 °C): -0.864 ± 0.24

CAUAAGCAAUAUUACGCUAC
self-splicing fitness (ln) (37 °C): -1.79 ± 0.21

CAUAAGCAAUAUUACGCUUU
self-splicing fitness (ln) (30 °C): -3.86 ± 0.26 | self-splicing fitness (ln) (37 °C): -2.73 ± 0.24

CAUAAGCAAUAUUACGGCCA
self-splicing fitness (ln) (30 °C): -2.38 ± 0.26 | self-splicing fitness (ln) (37 °C): -2.62 ± 0.29

CAUAAGCAAUAUUACGGCGA
self-splicing fitness (ln) (30 °C): -1.96 ± 0.18 | self-splicing fitness (ln) (37 °C): -0.178 ± 0.15

CAUAAGCAAUAUUACGGGAA
self-splicing fitness (ln) (30 °C): -2.98 ± 0.21 | self-splicing fitness (ln) (37 °C): -2.23 ± 0.16
